Measurements from patent US20250332300A1 (priority 2024, published 2025).
One block for each molecule: values may come before it. Positions of bridges follow the written chain, without caps; N, C: chain ends. Non-standard residues stand in square brackets, D forms with d. *: point of attachment. X4 = 4‑(carboxymethyl)piperazine‑1‑carbonyl, O=C(O)CN1CCN(C(=O)*)CC1; DOTA = O=C(O)CN1CCN(CC(=O)O)CCN(CC(=O)*)CCN(CC(=O)O)CC1; Trp(5-OH) = N[C@@H](Cc1c[nH]c2ccc(O)cc12)C(=O)O; NMePhe(4-F) = CN[C@@H](Cc1ccc(F)cc1)C(=O)O; NMehPhe = CN[C@@H](CCc1ccccc1)C(=O)O; aThr = C[C@H](O)[C@H](N)C(=O)O; NMeK = CN[C@@H](CCCCN)C(=O)O; NMeDap = CN[C@@H](CN)C(=O)O; Dap = NC[C@H](N)C(=O)O

How the values were obtained:
human HER2 (23-652) [1] = molecular target: T1, human HER2 (23-652) (Homo sapiens, UniProt P04626); experiment: Surface plasmon resonance (SPR) for assessment of peptide affinity, human HER2; type: binding; conditions: SPR, human HER2 extracellular domain, 25° C., 1:1 binding model; read-out: huHER2-SPR-ONC KD
Method: Each protein was immobilized either onto a SA sensorchip (Cytiva, BR-1005-31) or CM5 sensorchip (Cytiva, BR-1005-30) to a density of 800-2000 RU. […] For the assay setup the same conditions (flow rate, running buffer, peptide dilution) as described above were used. In a first step the Anti Fc IgG Ab (from Human Antibody Capture Kit, Ref. 29234600, Cytiva) was diluted into acetate pH 5.0 at 25 ug/mL and immobilized at a flow rate of 10 uL/min over 360 s to reach a density around 6000 RU. […] The peptides were tested with an association time of 280 s followed by a dissociation time of 3000 s at a flow rate of 30 uL/min. The regeneration was done using 3 M magnesium chloride regeneration solution as obtained with a contact time of 30 s at a flow rate of 10 uL/min. Curve fitting was performed using the BiacoreTM 8K evaluation software.

mouse HER2 (23-653) [2] = molecular target: T2, mouse HER2 (23-653) (Mus musculus, UniProt P70424); experiment: TR-FRET competition assay for peptide potency, mouse HER2; type: binding; set-up: mouse HER2 (23-653) using a Cy5 labeled peptide as a probe; made in house; host or cells: mammalian cells; conditions: TR-FRET competition with Cy5 labeled peptide probe, 0.1 nM mouse HER2, 24 h incubation; read-out: moHER2 TR-FRET IC50
human HER2 (23-652) [3] = molecular target: T1, human HER2 (23-652); experiment: TR-FRET competition assay for peptide potency, human HER2; type: binding; set-up: towards human HER2 (23-652) and mouse HER2 (23-653); made in house; host or cells: mammalian cells; conditions: read-out: huHER2 TR-FRET IC50
mouse HER2 (23-653) [4] = molecular target: T2, mouse HER2 (23-653); experiment: Surface plasmon resonance (SPR) for assessment of peptide affinity, mouse HER2; type: binding; conditions: SPR, mouse HER2 extracellular domain, 25° C., 1:1 binding model; read-out: moHER2-SPR-ONC KD
Excerpt: Each protein was immobilized either onto a SA sensorchip (Cytiva, BR-1005-31) or CM5 sensorchip (Cytiva, BR-1005-30) to a density of 800-2000 RU.

[5] = test system: subcutaneous JimT1 tumors; set-up: species or system Nu (NCr)-Foxnlnu-homozygous mice; conditions: mouse, in vivo, iv
Method: Biodistribution studies were performed at Minerva Imaging. All animal experimentation was carried out under a license approved by the National Animal Experiments Inspectorate under the Ministry of Environment and Food of Denmark, and further approved by the Novartis Animal Welfare Office. Biodistribution studies were performed in Nu (NCr)-Foxnlnu-homozygous mice bearing subcutaneous JimT1 tumors. Mice were subcutaneously implanted with 2×10^6 JimT1 cells into right flank. The biodistribution studies were typically performed when tumors were approximately 200 mm^3 in volume. Compounds according to Examples H1 and H2 were prepared as described in the radiochemistry part (Section 9). Animals were single dose administered with an activity concentration of 4 MBq/nmol per animal. The biodistribution of the compounds was assessed using conventional ex vivo biodistribution at different time points (1, 4, 24 and 72 hrs) after intravenous injection of Lu-177 labelled compounds. Mice were euthanized and organs were collected, weighed, and placed inside counting vials. Organ uptake was assessed by gamma counting using an automated gamma counter for 60 seconds immediately after tissue collection. Tissue counts and injected doses for individual animals were decay-corrected to the time of injection. […] Results expressed as a percentage of injected dose per gram of the tissue (% ID/g).

[6] = molecular target: T3, human HER2 (23-652), biotinylated, His tag, Avi tag (human, UniProt P04626 23-652, biotin (Avi tag)); experiment: SPR, HER2 on chip, 25 C
T3 construct: range 23-652; TR-FRET used the in-house 23-652 protein; also called huHER2; human epidermal growth factor receptor 2; not shown: His tag and Avi tag, said to be at the N-terminus for the TR-FRET protein

[7] = molecular target: T4, mouse HER2 (23-653), biotinylated, His tag, Avi tag (mouse, UniProt P70424 23-653, biotin (Avi tag)); experiment: SPR, HER2 on chip, 25 C
T4 construct: range 23-653; in-house protein expressed in mammalian cells; also called moHER2; not shown: His tag and Avi tag, said to be at the N-terminus for the TR-FRET protein

[8] = molecular target: T3, human HER2 (23-652), biotinylated, His …; experiment: TR-FRET competition vs Cy5 peptide probe
[9] = molecular target: T4, mouse HER2 (23-653), biotinylated, His …; experiment: TR-FRET competition vs Cy5 peptide probe

T2 sequence (P70424 23-653): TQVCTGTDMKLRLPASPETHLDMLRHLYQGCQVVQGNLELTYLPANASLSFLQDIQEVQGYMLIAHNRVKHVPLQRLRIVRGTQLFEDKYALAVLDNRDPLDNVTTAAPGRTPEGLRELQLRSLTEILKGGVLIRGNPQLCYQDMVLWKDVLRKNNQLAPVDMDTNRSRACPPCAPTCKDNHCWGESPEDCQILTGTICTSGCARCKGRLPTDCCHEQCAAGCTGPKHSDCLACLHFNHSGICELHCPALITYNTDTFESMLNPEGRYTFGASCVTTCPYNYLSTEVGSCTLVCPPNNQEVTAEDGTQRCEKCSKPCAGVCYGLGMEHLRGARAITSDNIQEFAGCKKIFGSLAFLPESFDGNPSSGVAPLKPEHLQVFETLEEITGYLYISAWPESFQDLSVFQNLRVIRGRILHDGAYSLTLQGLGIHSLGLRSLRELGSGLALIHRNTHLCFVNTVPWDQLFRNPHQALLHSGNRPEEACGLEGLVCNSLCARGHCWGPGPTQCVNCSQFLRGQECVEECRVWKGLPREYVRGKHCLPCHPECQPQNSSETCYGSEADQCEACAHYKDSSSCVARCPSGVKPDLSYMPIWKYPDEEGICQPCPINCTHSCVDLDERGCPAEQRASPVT
T4 sequence (P70424 23-653 limits assumed): as the sequence (P70424 23-653) above

Kd (human HER2 (23-652) [1]): < 0.1 nM
IC50 (mouse HER2 (23-653) [2]): 0.2 nM
IC50 (human HER2 (23-652) [3]): < 0.1 nM
Kd (mouse HER2 (23-653) [4]): < 0.1 nM
Molecule: CC(=O)NCCCC[C@H]1C(=O)N[C@@H](Cc2c[nH]c3ccc(O)cc23)C(=O)N[C@@H](Cc2c[nH]c3ccccc23)C(=O)N[C@@H](C2CC2)C(=O)N(C)[C@H](C(=O)N(C)[C@@H](Cc2ccc(F)cc2)C(=O)N[C@@H](CCCCNC(=O)c2ccc([N+](C)(C)C)nc2)C(N)=O)CNC(=O)CCC[C@H](NC(C)=O)C(=O)N[C@@H](Cc2ccc(O)cc2)C(=O)N[C@@H](CO)C(=O)N(C)[C@@H](CCc2ccccc2)C(=O)N1C [Example F2]

Molecule: COCCOCCOCCOCCOCCOCCOCCOCCOCCOCCOCCOCCC(=O)N[C@H]1CCCC(=O)NC[C@@H](C(=O)N(C)[C@@H](Cc2ccc(F)cc2)C(=O)N[C@@H](CCCCNC(=O)CN2CCN(CC(=O)O)CCN(CC(=O)O)CCN(CC(=O)O)CC2)C(N)=O)N(C)C(=O)[C@H](C2CC2)NC(=O)[C@H](Cc2c[nH]c3ccccc23)NC(=O)[C@H](Cc2c[nH]c3ccc(O)cc23)NC(=O)[C@H](CCCCNC(C)=O)N(C)C(=O)[C@H](CCc2ccccc2)N(C)C(=O)[C@H](CO)NC(=O)[C@H](Cc2ccc(O)cc2)NC1=O [Example H1, Example B2 labelled with ^177Lu, metal not drawn]
tumor/normal tissue ratios [5]: favorable tumor/normal tissue ratios

Kd [6]: 5.1 nM
Kd [7]: 11 nM
IC50 [8]: 4.2 nM
IC50 [9]: 17 nM
Molecule: Ac-EY[Dap](DOTA)[NMehPhe][NMeK](Ac)[Trp(5-OH)]W[aThr][NMeDap][NMePhe(4-F)]K(X4)-NH2 (lactam 1-9; also: DOTA complexed with 175Lu) [Example C26]
